Source: patent publication US20260083749A1, “ANTI-CD123 IMMUNOCONJUGATES FOR THE TREATMENT OF ACUTE MYELOID LEUKEMIA” (ImmunoGen, Inc., priority 2024, published 2026)

Tests used:
AML patients = conditions: published for other AML therapies; cited from earlier work
patients with R/R AML [1] = assay: Phase 1/2 trial of pivekimab sunirine monotherapy Q3W: anti-leukemia responses; type: in vivo, human; conditions: for Median time to first CCR (CR/CRh/CRi): range
Excerpt: (§1) Patients with AML were enrolled into a phase 1/2 clinical trial of pivekimab sunirine. Key inclusion and exclusion criteria were as follows.
• Patients ≥18 years old • R/R AML • Confirmation of CD123 positivity on flow cytometry or immunohistochemistry (IHC). Patients who received prior CD123-targeting agents were allowed as long as the blasts still had detectable CD123 expression. • Eastern Cooperative Oncology Group (ECOG) performance status ≤1. […] Patients with a PCHM were eligible as long as no current therapy was still required for the second malignancy (e.g., MDS, CMML). Patients with a nonhematologic prior malignancy were in remission from the prior malignancy.
(§2) Patients with R/R AML (n=68) were treated with pivekimab sunirine once every 3 weeks (Q3W; on day 1 of a 3-week cycle).
(§3) The trial included a dose-escalation phase and a dose-expansion phase. All patients in both phases received intravenous doses of pivekimab sunirine on day 1 of a 21-day cycle as a <30-minute outpatient infusion. Lyophilized pivekimab sunirine was reconstituted using […] of water for injection. Planned treatment consisted of 2 cycles (6 weeks). Additional cycles, up to 10 total, were administered for patients deriving benefit from this regimen. CNS prophylactic intrathecal chemotherapy was administered. Patients received 8 mg dexamethasone on the day before any pivekimab sunirine dose. Patients also received 25-50 mg diphenhydramine, 325-650 mg acetaminophen or paracetamol, and 8 mg dexamethasone before each pivekimab sunirine infusion.
(§4) In the dose-escalation phase, patients received doses of pivekimab sunirine starting at 0.015 mg/kg with five escalations (n=38): 0.015 mg/kg (n=3), 0.045 mg/kg (n=9), 0.09 mg/kg (n=12), […] (n=7), 0.3 mg/kg (n=5), and 0.45 mg/kg (n=2).
Anti-leukemia responses were assessed per International Working Group (IWG) criteria 2003 (Cheson B D, et al. Revised recommendations of the International Working Group for Diagnosis, Standardization of Response Criteria, Treatment Outcomes, and Reporting Standards for Therapeutic Trials in Acute Myeloid Leukemia. J Clin Oncol 2003; 21(24): 4642-9) and European LeukemiaNet (ELN) response criteria 2017 (Dohner H, et al. Diagnosis and management of AML in adults: 2017 ELN recommendations from an international expert panel. Blood 2017; 129(4): 424-47) as composite complete remission (CCR) rate (defined as CR without minimal residual disease [CRMRD−]+CR+CRh+CR with incomplete recovery CRi]). Overall response rate (ORR) was defined as CRMRD−+CR+CRh+CRi+morphologic leukemia-free state (MLFS) +partial response (PR). Duration of overall response (DOR) was also evaluated.
Response assessments were performed in bone marrow aspirates (BMAs) for differential assessments taken on Cycle 1, Day 21±7 days. Subsequent BMAs were performed approximately every 1 to 2 cycles as clinically indicated, and at the 30-Day Follow-up visit. Data was also collected in the event BMAs were performed more frequently. No repeat bone marrow was necessary if lack of response or PD could be unequivocally diagnosed from peripheral blood tests or if the bone marrow test was considered noncontributory at any time point.

patients with R/R AML [2] = assay: Phase 1/2 trial of pivekimab sunirine monotherapy Q3W: safety (TEAEs, SAEs, DLTs); type: in vivo, human
Protocol: as §1, §2, §3
Following preparation, IMGN632 (or pivekimab sunirine (pvek)) was administered by IV syringe pump. Overall length of infusion was varied depending on dose and patient tolerability. Initially, the study drug was administered at a rate of 0.165 mg/min ([…]); and, after 30 minutes, if well tolerated, the rate was increased to 0.33 mg/min. Subsequent infusions were delivered at the highest tolerated rate. Before and following infusion, the line was flushed with 5% dextrose to ensure delivery of the full dose. Patients were carefully observed during each infusion and vital signs were monitored. Patients remained in the clinic under observation for 4 hours after the first infusion and for at least 1 hour after each subsequent infusion.
as §4
Based on nonclinical pharmacology, clinical safety, anti-leukemia activity, PK, and PD assessments during the dose-escalation phase, two cohorts were established for the dose expansion phase. • Cohort 1: Patients with relapsed AML received 0.045 mg/kg (escalation dose level 2) Q3W (n=20). • Cohort 2: Patients with relapsed or refractory (to non-intense therapies) AML received 0.09 mg/kg (escalation dose level 3) Q3W (n=10).
Safety was assessed by treatment-emergent adverse events (TEAEs), serious adverse events (SAEs), and dose-limiting toxicities (DLTs). The median duration of treatment in participants who received […] pivekimab sunirine Q3W (n=29) was 9 weeks (range, 3-110).

patients with R/R AML [3] = assay: as above; type: in vivo, human; conditions: N= 3/91; dose levels four- to ten-fold higher per cycle than the RP2D
AML xenografts = conditions: background statement; cited from earlier work
[4] = system: normal marrow progenitors; conditions: background statement; cited from earlier work
[5] = RP2D, prior intensive therapy, n= 5/22
[6] = RP2D, prior venetoclax exposure, n= 2/14

**Q.** Which “Incidence of febrile neutropenia, published” value (AML patients) does the source give for `CCc1nc(C(N)=O)c(Nc2ccc(N3CCC(N4CCN(C)CC4)CC3)c(OC)c2)nc1NC1CCOCC1` [gilteritinib] here?
**A.** 46%

**Q.** For `N#Cc1ccnc(N2C(=O)CC[C@H]2C(=O)N(c2cncc(F)c2)[C@H](C(=O)NC2CC(F)(F)C2)c2ccccc2Cl)c1` [ivosidenib], which “Incidence of febrile neutropenia, published” value (AML patients) is on record?
**A.** 29%

B1: pivekimab sunirine (conjugate, chains of the INN, looked up)
VH: QVQLVQSGAEVKKPGASVKVSCKASGYIFTSSIMHWVRQAPGQGLEWIGYIKPYNDGTKYNEKFKGRATLTSDRSTSTAYMELSSLRSEDTAVYYCAREGGNDYYDTMDYWGQGTLVTVSS
VL: EIQMTQSPSSLSASVGDRVTITCRASQDINSYLSWFQQKPGKAPKTLIYRVNRLVDGVPSRFSGSGSGNDYTLTISSLQPEDFATYYCLQYDAFPYTFGQGTKVEIK
modifications: sunirine payload (DNA-alkylating drug conjugate)
**Q.** What does the source list for B1?
**A.** Best overall response CR, % (patients with R/R AML [1]; All Participants (n = 68)): (3) %; Best overall response CR, No. (patients with R/R AML [1]; All Participants (n = 68)): 2 No.; Best overall response CRh, % (patients with R/R AML [1]; All Participants (n = 68)): (3) %; Best overall response CRh, No. (patients with R/R AML [1]; All Participants (n = 68)): 2 No.; Best overall response CRi, % (patients with R/R AML [1]; All Participants (n = 68)): (6) %; Best overall response CRi, No. (patients with R/R AML [1]; All Participants (n = 68)): 4 No.; Best overall response MLFS, % (patients with R/R AML [1]; All Participants (n = 68)): (3) %; Best overall response MLFS, No. (patients with R/R AML [1]; All Participants (n = 68)): 2 No.; Best overall response PD, % (patients with R/R AML [1]; All Participants (n = 68)): (24) %; Best overall response PD, No. (patients with R/R AML [1]; All Participants (n = 68)): 16 No.; Best overall response PR, % (patients with R/R AML [1]; All Participants (n = 68)): (2) %; Best overall response PR, No. (patients with R/R AML [1]; All Participants (n = 68)): 1 No.; Best overall response SD, % (patients with R/R AML [1]; All Participants (n = 68)): (52) %; Best overall response SD, No. (patients with R/R AML [1]; All Participants (n = 68)): 35 No.; CCR rate (CR + CRh + CRi), % (patients with R/R AML [1]; All Participants (n = 68)): (12) %; CCR rate (CR + CRh + CRi), No. (patients with R/R AML [1]; All Participants (n = 68)): 8 No.; Median duration of CR (patients with R/R AML [1]; All Participants (n = 68)): 2.2 mo; Median duration of remission (patients with R/R AML [1]; All Participants (n = 68)): 2.0 mo; ORR (CR + CRh + CRi + MLFS + PR), No. (patients with R/R AML [1]; All Participants (n = 68)): 11 No.; Anti-leukemia activity versus CD123 expression (patients with R/R AML [1]; FIG. 3): anti-leukemia activity regardless of CD123 expression; ORR (patients with R/R AML [1]; RP2D, de novo (nonsecondary) AML, n= 6/18): 33%; CCR (patients with R/R AML [1]; RP2D, prior HSCT, n= 3/9): 33%; ORR (patients with R/R AML [1]; RP2D, prior HSCT, n= 3/9): 33%; CCR (patients with R/R AML [1]; [5]): 23%; ORR (patients with R/R AML [1]; [5]): 23%; CCR (patients with R/R AML [1]; [6]): 14%; ORR (patients with R/R AML [1]; [6]): 14%; CCR (patients with R/R AML [1]; RP2D, two prior lines, n= 3/15): 20%; ORR (patients with R/R AML [1]; RP2D, two prior lines, n= 4/15): 27%; CCR (patients with R/R AML [1]; RP2D, venetoclax-naive, n= 3/15): 20%; ORR (patients with R/R AML [1]; RP2D, venetoclax-naive, n= 4/15): 27%; Median duration of CCR (CR/CRh/CRi) (patients with R/R AML [1]; RP2D, 95% CI 1.64-not estimable): 2.27 months; Median time to first CCR (CR/CRh/CRi) (patients with R/R AML [1]; RP2D, 0.79-3.61): 2.04 months; Participants with decrease in bone marrow blasts (patients with R/R AML [1]; all dose levels and cohorts, n= 31/68): 46%; Median duration of CCR (CR/CRh/CRi) (patients with R/R AML [1]; all schedule A doses, 95% CI 1.02-3.55): 2.22 months; Median time to first CCR (CR/CRh/CRi) (patients with R/R AML [1]; all schedule A doses, 0.46-4.37): 1.76 months; Participants with >100% increase in BM blasts (patients with R/R AML [1]; cohort 1 and cohort 2 R/R AML, FIG. 1): 11 participants; Individual responses in participants with FLT3-ITD mutations (patients with R/R AML [1]; in vivo): ¼; Individual responses in participants with IDH1 mutations (patients with R/R AML [1]; in vivo): ⅓; Prolonged neutropenia (grade 3) considered related to pivekimab sunirine (DLT) (patients with R/R AML [2]; 0.3 mg/kg after 2 cycles): one; 30-day mortality rate (patients with R/R AML [2]; 2 deaths due to disease progression): 7%; Maximum tolerated dose (MTD) (patients with R/R AML [2]; 30-fold dose escalation, 0.015-[…] Q3W): no maximum tolerated dose (MTD) defined; Incidence of febrile neutropenia (patients with R/R AML [2]; all schedule A participants): 35%; Reversible VOD possibly related to pivekimab sunirine (DLT) (patients with R/R AML [2]; grade 3, 0.18 mg/kg after 2 cycles, grade 4, […] during cycle 1): two; Grade 4 IRRs (patients with R/R AML [2]; in vivo): no grade 4 IRRs occurred; IRRs (patients with R/R AML [2]; mostly tachycardia and/or chills with the first dose, primarily grade 1-2): 31%; Participants who experienced DLTs (patients with R/R AML [2]; of the 68 participants, all doses): Three; TEAEs leading to treatment discontinuation (patients with R/R AML [2]; seven of 68 participants): 10%; Reversible VOD (patients with R/R AML [3]): 3%; Antitumor activity in AML xenografts (AML xenografts): potent antitumor activity; Toxicity in normal marrow progenitors versus other DNA-targeting payloads [4]: less toxicity in normal marrow progenitors
